Assay results published in publication PMC12164381 (mAbs, 2025).
Changes are numbered by the printed parent chain.

B1: BD55–5840 (antibody, V domains shown)
VH: VQLAQSGSELRKPGASVKVSCDTSGHSFTSNAIHWVRQAPGQGLEWMGWINTDTGTPTYAQGFTGRFVFSLDTSARTAYLQISSLKADDTAVFYCARERDYSDYFFDYWGQGTLVTVSS
VL: EVVMTQSPASLSVSPGERATLSCRARASLGISTDLAWYQQRPGQAPRLLIYGASTRATGIPARFSGSGSGTEFTLTISSLQSEDSAVYYCQQYSNWPLTFGGGTKVEIK
B2: REGN10987 (antibody, V domains shown)
VH: QVQLVESGGGVVQPGRSLRLSCAASGFTFSNYAMYWVRQAPGKGLEWVAVISYDGSNKYYADSVKGRFTISRDNSKNTLYLQMNSLRTEDTAVYYCASGSDYGDYLLVYWGQGTLVTVSS
VL: QSALTQPASVSGSPGQSITISCTGTSSDVGGYNYVSWYQQHPGKAPKLMIYDVSKRPSGVSNRFSGSKSGNTASLTISGLQSEDEADYYCNSLTSISTWVFGGGTKLTVL
B3: LY-CoV1404 (antibody, V domains shown)
VH: QITLKESGPTLVKPTQTLTLTCTFSGFSLSISGVGVGWLRQPPGKALEWLALIYWDDDKRYSPSLKSRLTISKDTSKNQVVLKMTNIDPVDTATYYCAHHSISTIFDHWGQGTLVTVSS
VL: QSALTQPASVSGSPGQSITISCTATSSDVGDYNYVSWYQQHPGKAPKLMIFEVSDRPSGISNRFSGSKSGNTASLTISGLQAEDEADYYCSSYTTSSAVFGGGTKLTVL
B4: S2K146 (antibody, V domains shown)
VH: QVQLVESGGVVVQPGGSLRLSCAASGFTFHDHTMHWVRQAPGKGLEWVSLITWNGGTIHYSDSVKGRFTISRDNSKNSLYLQMNSLRTEDTALYYCAKDLGRGGWYLPSDAWGQGTLVTVSS
VL: not shown
B5: Inverse folding design from the DXP-604 starting point (Table 5, design row 1, the 5th table, row 4) (antibody, V domains shown)
VH: EVQLVESGGGLIQPGGSLRLSCAASGIIVSRNYMTWVRQAPGKGLEWVSVIYSGGSTFYADSVKGRFTISRDNSKNTLYLQMSSLRAEDTAVYYCARDLGPYGMDVWGQGTTVTVSS
VL: DIQLTQSPSFLSASVGDRVTITCRASQGISSDLAWYQQKPGKAPNLLIYAASTLQSGVPSRFSGSGSGTEFTLTISSLQPEDFATYYCQQLMDTLYTFGQGTKLEIK
B6: Inverse folding design from the DXP-604 starting point (Table 5, design row 3, the 5th table, row 6) (antibody, V domains shown)
VH: B5 VH
VL: B5 VL with M92N, T94L
B7: Inverse folding design from the DXP-604 starting point (Table 5, design row 7, the 5th table, row 10) (antibody, V domains shown)
VH: B5 VH
VL: B5 VL with M92N, D93S, T94D
B8: Inverse folding design from the DXP-604 starting point (Table 5, design row 6, the 5th table, row 9) (antibody, V domains shown)
VH: B5 VH
VL: B5 VL with S30G, M92N, D93S, T94D
B9: Inverse folding design from the DXP-604 starting point (Table 5, design row 4, the 5th table, row 7) (antibody, V domains shown)
VH: B5 VH with S56T
VL: B5 VL with S30G, M92N, D93S, T94D
B10: Inverse folding design from the DXP-604 starting point (Table 5, design row 2, the 5th table, row 5) (antibody, V domains shown)
VH: B5 VH with S56T, G100A, P101V
VL: B5 VL with S30G, M92N, D93S, T94D
B11: Inverse folding design from the DXP-604 starting point (Table 5, design row 5, the 5th table, row 8) (antibody, V domains shown)
VH: B5 VH with S53P, P101V
VL: B5 VL with M92N, T94Y
B12: Inverse folding design from the LY-CoV1404 starting point (Table 5, design row 2, the 5th table, row 13) (antibody, V domains shown)
VH: B3 VH
VL: B3 VL with D31I, S97A
B13: Inverse folding design from the LY-CoV1404 starting point (Table 5, design row 1, the 5th table, row 12) (antibody, V domains shown)
VH: B3 VH with I31T
VL: B3 VL with D31N, T95S, A98V

target: T1, SARS-CoV-2 Spike RBD, original (Wuhan) strain (SARS-CoV-2, original Wuhan strain, UniProt P0DTC2); experiment: SPR

Which pKD does the source give for B1 here?
Its pKD is 10.1 -log10(KD).

For B2, which pKD is on record?
The pKD was 7.84 -log10(KD).

With B3 as the binder, how does the pKD read?
Its pKD is 9.01 -log10(KD).

How did the pKD turn out when B4 was run?
Its pKD is 10.3 -log10(KD).

target: T1, SARS-CoV-2 Spike RBD, original (Wuhan) …; experiment: SPR; remark: another data set of the same source

B5 was tested. Which pKD did it give?
The pKD was 10 -log10(KD).

B6 was tested. Which pKD did it give?
Its pKD is 9.38 -log10(KD).

B7 was tested. Which pKD did it give?
The pKD was 10.6 -log10(KD).

With B8 as the binder, how does the pKD read?
Its pKD is 10 -log10(KD).

Which pKD does the source give for B9 here?
The pKD was 9.53 -log10(KD).

B10 was tested. Which pKD did it give?
Its pKD is 10.2 -log10(KD).

B11 was tested. Which pKD did it give?
Its pKD is 10.8 -log10(KD).

For B12, which pKD is on record?
Its pKD is 9.48 -log10(KD).

B13 was tested. Which pKD did it give?
Its pKD is 9.57 -log10(KD).

target: SARS-CoV-2 Spike RBD, XBB.1.5 strain (SARS-CoV-2, Omicron XBB.1.5, strain); experiment: SPR

B5 was tested. Which pKD did it give?
Its pKD is 6.33 -log10(KD).

For B6, which pKD is on record?
Its pKD is 6.01 -log10(KD).

For B7, which pKD is on record?
Its pKD is 6.07 -log10(KD).

For B8, which pKD is on record?
The pKD was 6.28 -log10(KD).

How did the pKD turn out when B9 was run?
Its pKD is 6.35 -log10(KD).

For B10, which pKD is on record?
The pKD was 6.15 -log10(KD).

B11 was tested. Which pKD did it give?
The pKD was 6.33 -log10(KD).
